What was measured:
Assay in all cases: SPR; IgG amine-coupled to CM5 chip (Biacore 3000); GST-ABD or GST at 54, 108, 216 and 432 nM, 10 μl/min for 7 min; 25 °C; PBS running buffer; 1:1 Langmuir model
Rabbit IgG (rabbit) = molecular target: Rabbit IgG (rabbit)
Mouse IgG (mouse) = molecular target: Mouse IgG (mouse)
Rat IgG (rat) = molecular target: Rat IgG (rat)

“GST-ABD (recombinant secondary antibody mimic; glutathione-S-transferase fused through a linker to the antibody-binding domain of protein A) (domain or fragment)” was tested, and the Ka (Rabbit IgG (rabbit)) was 7.6e+08 M⁻¹, the Kd (Rabbit IgG (rabbit)) was 1.31 nM and the koff (Rabbit IgG (rabbit)) was 9e-05 s⁻¹. The kon (Rabbit IgG (rabbit)) was 66600 M⁻¹ s⁻¹, the Ka (Mouse IgG (mouse)) was 5.9e+07 M⁻¹ and the Kd (Mouse IgG (mouse)) was 16.8 nM. For the same substance, the koff (Mouse IgG (mouse)) was 0.00107 s⁻¹, the kon (Mouse IgG (mouse)) was 63800 M⁻¹ s⁻¹ and the Ka (Rat IgG (rat)) was 2.3e+08 M⁻¹. It also gave a Kd (Rat IgG (rat)) of 4.34 nM, a koff (Rat IgG (rat)) of 0.00022 s⁻¹ and a kon (Rat IgG (rat)) of 51800 M⁻¹ s⁻¹.

— paper PMC4827060
